Source: patent US20220204601A1 (ADEL, published 2022)
Ends that are not written are not given here.

Legend:
[1] = target: T1, acetylated Tau K280A protein (human, UniProt P10636 2-758, acetylated in vitro with P300 enzyme and acetyl CoA; sites not stated); assay: western blot
T1 construct: Tau K280A acetylated in the same manner as the acetylated K18 fragment; also called Tau K280A (acetylated)
Protocol: (§1) In order to identify specific binding of the ADEL-Y01m antibody prepared in Preparation Example 2 to acetylated tau protein, the wild-type tau protein and the tau protein (Tau K280A) in which the 280th amino acid lysine is replaced with alanine were acetylated in vitro. Here, acetylation of the wild-type Tau protein and the Tau K280A protein was performed in the same manner as in the preparation method of the acetylated K18 protein fragment in Preparation Example 1. Then, an antigen-antibody specific binding reaction of the ADEL-Y01m antibody was checked through western blotting.
(§2) First, the concentrations of the wild-type Tau protein and the Tau K280A protein were measured through Bradford Assay. Each of the proteins was mixed with 4× sample buffer (60 mM Tris-HCl [pH 6.8], 2% w/v SDS, 25% v/v glycerol, 14.4 mM v/v β-mercaptoethanol, and bromophenol blue). Thereafter, each protein was electrophoresed on an SDS-PAGE gel. Then, the electrophoresed gel was separated and transferred onto a PVDF membrane (BioRad, California, USA). Treatment with a blocking buffer (0.1% v/v Tween-20 [PBST], 3% w/v BSA, or 5% v/v skim milk in PBS buffer) was performed and reaction was allowed to proceed for 1 hour. Then, treatment with an anti-acetyl-lysine antibody (anti-acetyl-lysine, Cell Signaling, 9441) or ADEL-Y01m antibody as a primary antibody was performed and reaction was allowed to proceed at 4° C. overnight. The next day, the PVDF membrane was washed three times with a washing buffer (0.1% v/v Tween-20 [PBST] in PBS buffer), and then treated with HRP-labeled anti-mouse IgG antibody (Bioxcell, BE0083). The PVDF membrane was treated with a chemiluminescent reagent (Thermo Fisher Scientific). Then, measurement and analysis were performed using x-ray film and ImageJ software (NIH, Bethesda, Md.).

[2] = target: T2, Tau (Acetylation -); assay: western blot
T2 construct: also called non-Ac tau protein; non-acetylated wild type tau protein
T2 sequence (tau protein, as listed by the source): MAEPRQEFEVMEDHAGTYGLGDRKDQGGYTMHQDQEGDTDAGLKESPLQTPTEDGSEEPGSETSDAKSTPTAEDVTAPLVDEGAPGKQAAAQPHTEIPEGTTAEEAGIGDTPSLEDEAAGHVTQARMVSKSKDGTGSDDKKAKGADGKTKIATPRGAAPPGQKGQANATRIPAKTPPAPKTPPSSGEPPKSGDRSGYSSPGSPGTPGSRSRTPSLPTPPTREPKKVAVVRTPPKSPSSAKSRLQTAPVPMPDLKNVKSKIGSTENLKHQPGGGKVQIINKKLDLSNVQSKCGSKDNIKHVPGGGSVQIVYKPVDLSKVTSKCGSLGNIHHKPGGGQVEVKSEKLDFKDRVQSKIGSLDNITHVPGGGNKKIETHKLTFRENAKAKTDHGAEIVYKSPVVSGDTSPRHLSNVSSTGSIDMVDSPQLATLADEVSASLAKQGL
Protocol: as §1, §2

[3] = target: T3, Tau K280A protein (human, UniProt P10636 2-758); assay: western blot
T3 construct: Tau protein with lysine 280 replaced by alanine, not acetylated
T3 sequence (P10636 other isoform, or with tags, fused parts or gaps K280A K280A limits assumed): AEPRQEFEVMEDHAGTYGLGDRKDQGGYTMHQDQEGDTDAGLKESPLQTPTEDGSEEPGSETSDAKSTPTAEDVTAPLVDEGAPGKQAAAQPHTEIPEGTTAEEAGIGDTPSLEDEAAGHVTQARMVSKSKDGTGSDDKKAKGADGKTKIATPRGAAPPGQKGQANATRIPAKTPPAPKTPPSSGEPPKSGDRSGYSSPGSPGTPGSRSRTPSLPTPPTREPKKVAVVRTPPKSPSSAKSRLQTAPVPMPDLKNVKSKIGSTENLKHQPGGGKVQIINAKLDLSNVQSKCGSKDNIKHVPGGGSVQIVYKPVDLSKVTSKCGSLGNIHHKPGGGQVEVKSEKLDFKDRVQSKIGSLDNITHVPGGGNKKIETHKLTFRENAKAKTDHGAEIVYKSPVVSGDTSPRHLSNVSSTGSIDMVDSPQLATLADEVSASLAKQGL
Protocol: as §1, §2

[4] = target: T4, K280-ac protein fragment (human); assay: BLI, Octet K2; antibody fixed on AR2G biosensor, K280-ac fragment in solution
T4 construct: also called mAC
T4 peptide: VQIINK(Ac)KLDLSN
Protocol: (§3) An affinity between the K280-ac protein fragment prepared in Preparation Example 1 and the ADEL-Y01m antibody prepared in Preparation Example 2 was measured through the Octet® K2 System (Fortebio).
(§4) The ADEL-Y01m antibody was fixed on AR2G biosensor according to the manufacturer's manual. The surface of the biosensor was hydrated with water for 10 minutes, and then activated using a mixture of 20 mM 1-ethyl-3-[3-dimethylaminopropyl] carbodiimide hydrochloride (EDC) and 10 mM N-hydroxysulfosuccinimide (s-NHS). The ADEL-Y01m antibody was fixed on the activated biosensor using 10 mM sodium acetate buffer (pH 5.0) and quenched with 1M ethanol amine (pH 8.0) for 5 minutes. The biosensor on which the ADEL-Y01m antibody is fixed was immersed in 1×PBS buffer (pH 7.4) for 60 seconds, to establish a baseline. Then, the biosensor was immersed for 60 seconds in wells containing different concentrations of the K280-ac protein fragment (antigen) or BSA-bound peptide. Thereafter, the biosensor was immersed again in 1×PBS buffer (pH 7.4) for 10 minutes so that dissociation occurs. The experimental data were evaluated by Octet Data Analysis (SW version: 9.0.0.10).

[5] = target: T4, K280-ac protein fragment; assay: Octet K2 system, antibody fixed on AR2G biosensor, antigen in solution
Protocol: as §3, §4

T1 sequence (P10636 other isoform, or with tags, fused parts or gaps K280A K280A limits assumed): as above

binding result [1]: no binding
binding result [2]: no binding
binding result [3]: no binding
Kd [4]: 0.257 nM
koff [5]: 0.000157 s⁻¹
kon [5]: 447000 M⁻¹ s⁻¹
B1: ADEL-Y01m antibody (antibody, V domains shown)
VH: EVQLEESGPSLVKPSQTLSLTCSVTGDSITSGYWNWIRKFPGNKLEYMGYIRYSGRTYYNPSLKSRISITRDTSKNQFYLQLISVTTEDTATYYCASVYFTYWGQGTLVTVSS
VL: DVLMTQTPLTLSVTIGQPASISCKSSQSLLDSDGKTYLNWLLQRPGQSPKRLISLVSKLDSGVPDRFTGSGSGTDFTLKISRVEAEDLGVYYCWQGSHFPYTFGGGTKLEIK
notes: Mouse monoclonal antibody from a hybridoma; also called Y01m01; antibody produced from the #15E5 hybridoma cell line (clone #1)
